Results as given in the Human Domainome abundance scans (Beltran et al. 2025).
± gives the uncertainty stated by the source.

B1: Gamma-crystallin D, residues 90 to 170; numbered along this chain, P07320 (parent)
chain: IRLYEREDYRGQMIEFTEDCSCLQDRFRFNEIHSLNVLEGSWVLYELSNYRGRQYLLMPGDYRRYQDWGATNARVGSLRRV

Variants of: B1
Test: abundance fitness (aPCA) (normalised: wild type 0, dead -1); higher = more abundant; growth selection in yeast, the domain comes from the species named
Conditions: Homo sapiens

N72K and N72I are within error of each other in abundance fitness: -0.065 ± 0.12 for the first, 0.21 ± 0.32 for the second.

N72Y and N72L are within error of each other in abundance fitness: 0.173 ± 0.14 for the first, 0.149 ± 0.066 for the second.

N72S and N72G are within error of each other in abundance fitness: 0.051 ± 0.083 for the first, -0.001 ± 0.078 for the second.

N72A and N72H are within error of each other in abundance fitness: -0.08 ± 0.1 for the first, -0.083 ± 0.12 for the second.

N72V and N72Q are within error of each other in abundance fitness: 0.065 ± 0.058 for the first, 0.03 ± 0.11 for the second.

N72R and N72F are within error of each other in abundance fitness: 0.026 ± 0.054 for the first, 0.118 ± 0.12 for the second.

N72D and N72M are within error of each other in abundance fitness: -0.016 ± 0.17 for the first, 0.131 ± 0.11 for the second.

Compared with N72P, N72W is higher in abundance fitness: 0.03 ± 0.076 for the first, 0.233 ± 0.067 for the second.

Going from N72C to V75H, the abundance fitness falls from -0.078 ± 0.12 to -0.742 ± 0.43.

Compared with V75R, V75N is higher in abundance fitness: -0.863 ± 0.14 for the first, -0.205 ± 0.19 for the second.

V75T and V75G are within error of each other in abundance fitness: -0.206 ± 0.13 for the first, -0.024 ± 0.073 for the second.

V75F and V75A are within error of each other in abundance fitness: -0.037 ± 0.18 for the first, -0.017 ± 0.097 for the second.

First: V75K
Second: V75Y
The abundance fitness of the first is lower: -0.683 ± 0.25 for the first, -0.001 ± 0.23 for the second.

Compared with V75D, V75W is higher in abundance fitness: -0.988 ± 0.25 for the first, -0.131 ± 0.11 for the second.

Going from V75E to V75P, the abundance fitness rises from -1.04 ± 0.3 to -0.011 ± 0.087.

V75Q and V75C are within error of each other in abundance fitness: -0.145 ± 0.075 for the first, -0.065 ± 0.093 for the second.

V75I and V75M are within error of each other in abundance fitness: -0.201 ± 0.24 for the first, -0.024 ± 0.12 for the second.

Going from R79D to R79A, the abundance fitness rises from -0.552 ± 0.32 to 0.096 ± 0.097.

Compared with R79C, G69V is higher in abundance fitness: -0.355 ± 0.39 for the first, 0.105 ± 0.061 for the second.

G69R and G69F are within error of each other in abundance fitness: 0.141 ± 0.079 for the first, -0.008 ± 0.17 for the second.

G69P and G69I are within error of each other in abundance fitness: -0.164 ± 0.081 for the first, -0.057 ± 0.15 for the second.

G69A and G69C are within error of each other in abundance fitness: 0.038 ± 0.079 for the first, 0.084 ± 0.15 for the second.

G69T and G69Y are within error of each other in abundance fitness: 0.016 ± 0.098 for the first, 0.037 ± 0.26 for the second.

G69M and G69W are within error of each other in abundance fitness: 0.24 ± 0.13 for the first, 0.045 ± 0.078 for the second.

Going from G69E to G69D, the abundance fitness falls from 0.193 ± 0.075 to -0.105 ± 0.17.

G69L and G69Q are within error of each other in abundance fitness: 0.101 ± 0.085 for the first, 0.082 ± 0.15 for the second.

G69N and G69S are within error of each other in abundance fitness: -0.011 ± 0.22 for the first, -0.019 ± 0.073 for the second.

A73Y and A73T are within error of each other in abundance fitness: 0.003 ± 0.13 for the first, 0.126 ± 0.11 for the second.

A73S and A73P are within error of each other in abundance fitness: -0.023 ± 0.091 for the first, -0.175 ± 0.13 for the second.

A73G and A73D are within error of each other in abundance fitness: 0.004 ± 0.063 for the first, 0.104 ± 0.13 for the second.

A73H and A73N are within error of each other in abundance fitness: 0.151 ± 0.13 for the first, 0.05 ± 0.23 for the second.

A73M and A73Q are within error of each other in abundance fitness: 0.156 ± 0.059 for the first, 0.09 ± 0.089 for the second.

A73L and A73V are within error of each other in abundance fitness: 0.067 ± 0.07 for the first, 0.066 ± 0.076 for the second.

First: A73F
Second: A73R
The abundance fitness of the first is lower: -0.173 ± 0.17 for the first, 0.121 ± 0.059 for the second.

A73W and A73C are within error of each other in abundance fitness: 0.123 ± 0.064 for the first, 0.005 ± 0.14 for the second.

A73E and R74V are within error of each other in abundance fitness: -0.012 ± 0.12 for the first, 0.028 ± 0.096 for the second.

R74C and R74Y are within error of each other in abundance fitness: 0.012 ± 0.16 for the first, -0.092 ± 0.26 for the second.

R74L and R74Q are within error of each other in abundance fitness: -0.002 ± 0.071 for the first, -0.02 ± 0.098 for the second.

R74W and R74D are within error of each other in abundance fitness: -0.029 ± 0.11 for the first, 0.018 ± 0.21 for the second.

R74E and R74G are within error of each other in abundance fitness: 0.132 ± 0.14 for the first, -0.011 ± 0.07 for the second.

R74A and R74N are within error of each other in abundance fitness: -0.015 ± 0.085 for the first, 0.098 ± 0.21 for the second.

R74F and R74P are within error of each other in abundance fitness: -0.023 ± 0.13 for the first, 0.005 ± 0.093 for the second.

R74M and R74K are within error of each other in abundance fitness: -0.224 ± 0.068 for the first, -0.134 ± 0.15 for the second.

R74S and W68R are within error of each other in abundance fitness: -0.011 ± 0.078 for the first, 0.093 ± 0.054 for the second.

W68N and W68M are within error of each other in abundance fitness: -0.117 ± 0.19 for the first, 0.15 ± 0.11 for the second.

Compared with W68Q, W68L is higher in abundance fitness: -0.355 ± 0.11 for the first, 0.164 ± 0.079 for the second.

W68Y and W68P are within error of each other in abundance fitness: -0.163 ± 0.33 for the first, -0.067 ± 0.1 for the second.

W68K and W68V are within error of each other in abundance fitness: 0.16 ± 0.14 for the first, 0.087 ± 0.094 for the second.

W68T and T71W are within error of each other in abundance fitness: 0.149 ± 0.089 for the first, 0.001 ± 0.1 for the second.

T71M and T71I are within error of each other in abundance fitness: -0.125 ± 0.15 for the first, 0.043 ± 0.17 for the second.

T71F and T71Y are within error of each other in abundance fitness: -0.044 ± 0.16 for the first, -0.201 ± 0.25 for the second.

T71C and T71N are within error of each other in abundance fitness: 0.008 ± 0.12 for the first, 0.054 ± 0.32 for the second.

T71H and T71P are within error of each other in abundance fitness: 0.05 ± 0.18 for the first, -0.049 ± 0.13 for the second.

T71K and T71L are within error of each other in abundance fitness: -0.003 ± 0.16 for the first, 0.04 ± 0.096 for the second.

T71A and T71V are within error of each other in abundance fitness: 0.029 ± 0.11 for the first, -0.103 ± 0.11 for the second.

T71G and A70L are within error of each other in abundance fitness: -0.014 ± 0.074 for the first, 0.045 ± 0.063 for the second.

A70N and A70G are within error of each other in abundance fitness: 0.136 ± 0.46 for the first, -0.047 ± 0.061 for the second.

A70D and A70H are within error of each other in abundance fitness: 0.18 ± 0.13 for the first, 0.045 ± 0.15 for the second.

A70V and A70R are within error of each other in abundance fitness: 0.044 ± 0.081 for the first, 0.095 ± 0.049 for the second.

A70S and A70M are within error of each other in abundance fitness: -0.025 ± 0.093 for the first, 0.109 ± 0.14 for the second.

A70W and A70Y are within error of each other in abundance fitness: 0.032 ± 0.06 for the first, -0.033 ± 0.2 for the second.

A70P and A70E are within error of each other in abundance fitness: 0.047 ± 0.086 for the first, 0.165 ± 0.1 for the second.

A70I and A70F are within error of each other in abundance fitness: 0.024 ± 0.16 for the first, 0.048 ± 0.11 for the second.

A70Q and A70C are within error of each other in abundance fitness: -0.032 ± 0.1 for the first, 0.074 ± 0.072 for the second.

Going from L78P to L78I, the abundance fitness rises from -0.708 ± 0.2 to 0.061 ± 0.17.

L78E and L78K are within error of each other in abundance fitness: -0.873 ± 0.34 for the first, -1.12 ± 0.45 for the second.

L78G and L78H are within error of each other in abundance fitness: -0.565 ± 0.09 for the first, -0.426 ± 0.18 for the second.

Going from L78C to L78S, the abundance fitness falls from 0.157 ± 0.13 to -0.38 ± 0.091.

Going from L78R to L78M, the abundance fitness rises from -0.893 ± 0.11 to 0.126 ± 0.11.

Compared with L78Q, L78W is higher in abundance fitness: -0.908 ± 0.5 for the first, -0.011 ± 0.07 for the second.

G76H and G76A are within error of each other in abundance fitness: 0.11 ± 0.16 for the first, 0.011 ± 0.074 for the second.

G76M and G76T are within error of each other in abundance fitness: 0.111 ± 0.16 for the first, -0.109 ± 0.12 for the second.

G76S and G76N are within error of each other in abundance fitness: -0.027 ± 0.096 for the first, -0.125 ± 0.2 for the second.

G76C and G76K are within error of each other in abundance fitness: -0.287 ± 0.13 for the first, -0.112 ± 0.14 for the second.

G76D and G76Y are within error of each other in abundance fitness: -0.068 ± 0.099 for the first, -0.221 ± 0.16 for the second.

G76R and G76E are within error of each other in abundance fitness: 0.024 ± 0.076 for the first, 0.008 ± 0.11 for the second.

G76W and S77F are within error of each other in abundance fitness: -0.441 ± 0.14 for the first, -0.879 ± 0.45 for the second.

Compared with S77W, S77C is higher in abundance fitness: -1.01 ± 0.29 for the first, -0.28 ± 0.17 for the second.

First: S77G
Second: S77A
The abundance fitness of the first is lower: -0.367 ± 0.072 for the first, -0.168 ± 0.087 for the second.

S77P and S77K are within error of each other in abundance fitness: -1.04 ± 0.29 for the first, -0.654 ± 0.35 for the second.

S77V and S77E are within error of each other in abundance fitness: -1.13 ± 0.26 for the first, -0.868 ± 0.31 for the second.

S77R and S77T are within error of each other in abundance fitness: -1.01 ± 0.17 for the first, -0.921 ± 0.3 for the second.

S77L and S77D are within error of each other in abundance fitness: -0.819 ± 0.14 for the first, -1.03 ± 0.31 for the second.

S77Q showed an abundance fitness of -1.05 ± 0.42.
